The target in assay [1] is Arabidopsis thaliana thimet oligopeptidase TOP1, full-length (A. thaliana) (UniProt Q94AM1). Nature of the assay: SEC; purified His-tagged TOPs treated 30 min at RT with DTTred, DTTox, GSH or GSSG, purified again and dialysed; XBridge BEH200A SEC column, 50 mM sodium phosphate, 150 mM NaCl, 0.02% NaN3, pH 7.0. In general terms: SEC sorts molecules by how far they enter the pores of the column.

The next assay addresses T1, TOP1^C611A, Q94AM1.
T1 chain: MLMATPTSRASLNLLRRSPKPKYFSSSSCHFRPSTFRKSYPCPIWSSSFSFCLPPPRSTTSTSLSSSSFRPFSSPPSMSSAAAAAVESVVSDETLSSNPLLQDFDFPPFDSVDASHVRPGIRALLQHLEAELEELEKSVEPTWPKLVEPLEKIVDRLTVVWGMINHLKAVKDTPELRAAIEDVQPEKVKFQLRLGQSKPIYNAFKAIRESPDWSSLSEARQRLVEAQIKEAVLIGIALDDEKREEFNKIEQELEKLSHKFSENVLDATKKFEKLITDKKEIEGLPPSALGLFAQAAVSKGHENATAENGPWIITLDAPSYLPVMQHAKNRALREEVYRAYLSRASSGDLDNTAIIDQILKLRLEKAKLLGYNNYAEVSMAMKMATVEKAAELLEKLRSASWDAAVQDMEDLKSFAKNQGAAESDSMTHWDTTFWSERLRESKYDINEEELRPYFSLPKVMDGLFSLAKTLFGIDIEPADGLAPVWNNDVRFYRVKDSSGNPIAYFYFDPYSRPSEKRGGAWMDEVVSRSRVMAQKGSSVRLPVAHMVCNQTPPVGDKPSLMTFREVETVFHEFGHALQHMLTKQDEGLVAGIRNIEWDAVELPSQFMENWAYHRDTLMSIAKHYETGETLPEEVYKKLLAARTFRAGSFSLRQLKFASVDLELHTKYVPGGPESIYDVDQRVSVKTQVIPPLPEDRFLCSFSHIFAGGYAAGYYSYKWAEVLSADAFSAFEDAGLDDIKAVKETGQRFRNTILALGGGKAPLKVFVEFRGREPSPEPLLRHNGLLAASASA
Nature of the assay: size-exclusion chromatography (SEC), peak area quantification. The conditions noted are these: chain shown with the change; treatment (Ctrl or GSSG) not stated for this panel; parent: est. 38; read off a plot.

The target in the next assay is T2, TOP1^C699A, Q94AM1.
T2 chain: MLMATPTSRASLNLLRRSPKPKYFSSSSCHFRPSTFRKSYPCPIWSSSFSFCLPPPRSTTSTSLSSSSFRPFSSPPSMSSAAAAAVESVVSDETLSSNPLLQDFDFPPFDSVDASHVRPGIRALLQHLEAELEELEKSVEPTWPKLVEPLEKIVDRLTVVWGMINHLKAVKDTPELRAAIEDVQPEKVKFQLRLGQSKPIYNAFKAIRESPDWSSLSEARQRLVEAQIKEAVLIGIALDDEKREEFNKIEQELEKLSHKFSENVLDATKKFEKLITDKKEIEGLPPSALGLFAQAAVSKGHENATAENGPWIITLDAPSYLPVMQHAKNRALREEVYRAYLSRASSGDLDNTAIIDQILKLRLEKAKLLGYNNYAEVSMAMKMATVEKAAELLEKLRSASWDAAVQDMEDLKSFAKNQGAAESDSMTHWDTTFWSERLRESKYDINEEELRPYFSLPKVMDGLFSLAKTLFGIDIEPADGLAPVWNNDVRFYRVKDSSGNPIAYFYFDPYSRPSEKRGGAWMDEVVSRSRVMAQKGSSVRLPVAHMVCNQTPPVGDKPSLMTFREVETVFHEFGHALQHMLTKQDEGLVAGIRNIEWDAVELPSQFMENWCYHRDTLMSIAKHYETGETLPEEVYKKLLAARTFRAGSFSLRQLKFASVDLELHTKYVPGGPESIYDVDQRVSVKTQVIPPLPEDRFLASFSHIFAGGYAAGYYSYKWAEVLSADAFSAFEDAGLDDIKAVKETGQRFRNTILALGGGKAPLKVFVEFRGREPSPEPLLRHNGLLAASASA
The assay is described as above. The note with it: chain shown with the change; treatment (Ctrl or GSSG) not stated for this panel; parent: est. 38; read off a plot.

Values joined by “and” are separate entries in the source; they are usually repeats but may differ in a detail not shown here. Identical values can stand only once.

In general, stoichiometry N refers to the number of molecules, sites or subunits per partner or assembly. Take “Arabidopsis thaliana thimet oligopeptidase TOP1, full-length (from UniProt Q94AM1 83-791) (enzyme)”: the stoichiometry N in assay [1] is 2 and 3.

B1: Arabidopsis thaliana thimet oligopeptidase TOP1, full-length, Q94AM1 C611A (protein)
chain: MLMATPTSRASLNLLRRSPKPKYFSSSSCHFRPSTFRKSYPCPIWSSSFSFCLPPPRSTTSTSLSSSSFRPFSSPPSMSSAAAAAVESVVSDETLSSNPLLQDFDFPPFDSVDASHVRPGIRALLQHLEAELEELEKSVEPTWPKLVEPLEKIVDRLTVVWGMINHLKAVKDTPELRAAIEDVQPEKVKFQLRLGQSKPIYNAFKAIRESPDWSSLSEARQRLVEAQIKEAVLIGIALDDEKREEFNKIEQELEKLSHKFSENVLDATKKFEKLITDKKEIEGLPPSALGLFAQAAVSKGHENATAENGPWIITLDAPSYLPVMQHAKNRALREEVYRAYLSRASSGDLDNTAIIDQILKLRLEKAKLLGYNNYAEVSMAMKMATVEKAAELLEKLRSASWDAAVQDMEDLKSFAKNQGAAESDSMTHWDTTFWSERLRESKYDINEEELRPYFSLPKVMDGLFSLAKTLFGIDIEPADGLAPVWNNDVRFYRVKDSSGNPIAYFYFDPYSRPSEKRGGAWMDEVVSRSRVMAQKGSSVRLPVAHMVCNQTPPVGDKPSLMTFREVETVFHEFGHALQHMLTKQDEGLVAGIRNIEWDAVELPSQFMENWAYHRDTLMSIAKHYETGETLPEEVYKKLLAARTFRAGSFSLRQLKFASVDLELHTKYVPGGPESIYDVDQRVSVKTQVIPPLPEDRFLCSFSHIFAGGYAAGYYSYKWAEVLSADAFSAFEDAGLDDIKAVKETGQRFRNTILALGGGKAPLKVFVEFRGREPSPEPLLRHNGLLAASASA
On to B1, for which the other: percent dimer with TOP1^C611A, Q94AM1 was 3.5%.

B2: Arabidopsis thaliana thimet oligopeptidase TOP1, full-length, Q94AM1 C699A (protein)
chain: MLMATPTSRASLNLLRRSPKPKYFSSSSCHFRPSTFRKSYPCPIWSSSFSFCLPPPRSTTSTSLSSSSFRPFSSPPSMSSAAAAAVESVVSDETLSSNPLLQDFDFPPFDSVDASHVRPGIRALLQHLEAELEELEKSVEPTWPKLVEPLEKIVDRLTVVWGMINHLKAVKDTPELRAAIEDVQPEKVKFQLRLGQSKPIYNAFKAIRESPDWSSLSEARQRLVEAQIKEAVLIGIALDDEKREEFNKIEQELEKLSHKFSENVLDATKKFEKLITDKKEIEGLPPSALGLFAQAAVSKGHENATAENGPWIITLDAPSYLPVMQHAKNRALREEVYRAYLSRASSGDLDNTAIIDQILKLRLEKAKLLGYNNYAEVSMAMKMATVEKAAELLEKLRSASWDAAVQDMEDLKSFAKNQGAAESDSMTHWDTTFWSERLRESKYDINEEELRPYFSLPKVMDGLFSLAKTLFGIDIEPADGLAPVWNNDVRFYRVKDSSGNPIAYFYFDPYSRPSEKRGGAWMDEVVSRSRVMAQKGSSVRLPVAHMVCNQTPPVGDKPSLMTFREVETVFHEFGHALQHMLTKQDEGLVAGIRNIEWDAVELPSQFMENWCYHRDTLMSIAKHYETGETLPEEVYKKLLAARTFRAGSFSLRQLKFASVDLELHTKYVPGGPESIYDVDQRVSVKTQVIPPLPEDRFLASFSHIFAGGYAAGYYSYKWAEVLSADAFSAFEDAGLDDIKAVKETGQRFRNTILALGGGKAPLKVFVEFRGREPSPEPLLRHNGLLAASASA
Regarding B2, the other: percent dimer with TOP1^C699A, Q94AM1 came out at 17%.
